B1: CPEB3 Ribozyme (parent)
chain: GGGGGCCACAGCAGAAGCGUUCACGUCGCGGCCCCUGUCAGAUUCUGGUGAAUCUGCGAAUUCUGCUGU

Variants of: B1
Test: self-cleavage, relative activity (ratio to wild type); higher = more cleavage; co-transcriptional

Variant	self-cleavage
G28U U46A	0.163
G28U U46C	0.19
G28U U46G	0.187
G28U A59U	0.16
G28U A59G	0.23
C29A A59G	0.715
G28C U49C	0.145
G28U G37C	0.172
G28U G37U	0.166
G28U U64A	0.157
G28U U64G	0.147
C29A G31U	0.221
C29A G31A	0.296
C29A G31C	0.175
C29A C39G	0.431
C29A C39U	0.372
G28U C39G	0.206
G28U C39A	0.103
G28U U53G	0.22
G28U U53A	0.188
G28U A42U	0.149
G28U A42G	0.112
G28U G65C	0.132
G28U G50C	0.183

Variant	self-cleavage
G28U G50A	0.237
G28U G48A	0.255
C29A	0.777
G28U C34A	0.181
G28U U49G	0.11
G28U U49C	0.178
G28U U49A	0.166
C29A G30C	0.205
C29A G30A	0.264
C29A G30U	0.216
G28U C66A	0.153
G28U C66U	0.168
G28U C66G	0.16
G28U C54G	0.158
G28U C54A	0.144
G28U G31U	0.171
G28U G31C	0.141
G28U U69G	0.254
G28U U43C	0.176
G28U A60G	0.214
G28U A60C	0.226
C29A C35U	0.496
C29A C35G	0.276
G28U A52U	0.198

Variant	self-cleavage
G28U A52C	0.132
C29A G37U	0.147
C29A G37C	0.186
G28U C29A	0.142
G28U C29U	0.174
G28C U62A	0.194
G28C U62C	0.136
G28U U55A	0.203
G28U U55C	0.154
G28U G41U	0.155
G28U G41C	0.163
G28U G41A	0.166
C29A U64A	0.223
C29A U64C	0.25
C29A U55A	0.273
C29A U55C	0.38
G28U C63A	0.189
G28U C63G	0.254
G28U C63U	0.187
G28U A40C	0.225
G28U A40G	0.232
C29A G68U	0.903
C29A G68C	0.914
C29A G58A	0.435

Variant	self-cleavage
G28U U61C	0.11
G28U U61G	0.221
G28C U53G	0.196
G28C U53C	0.145
G28C U53A	0.156
G28U U36C	0.135
G28U C57U	0.213
G28U C32A	0.236
G28U C45A	0.189
G28U C45U	0.168
C29A C34A	0.334
C29A C34U	0.702
C29A C34G	0.22
C29A C57A	0.279
C29A C57G	0.225
C29A U44A	0.55
C29A A42U	0.517
C29A A42G	0.533
C29A A42C	0.409
C29A A40G	0.607
C29A A40C	0.214
C29A A40U	0.296
G28C U64G	0.116
G28C U64A	0.222

Variant	self-cleavage
C29A C66G	0.365
C29A C66U	0.664
C29A G47C	0.716
C29A G47U	0.817
C29A U36A	0.215
C29A U36C	0.428
G28U G68C	0.243
C29A A52U	0.671
C29A A52C	0.64
C29A A52G	0.77
G28U C33G	0.196
G28U C33A	0.21
C29A C45U	0.731
C29A A60U	0.257
G28C U55G	0.117
G28C U55C	0.162
G28U U67A	0.168
G28U U67G	0.203
G28U U67C	0.224
G28U C35G	0.14
G28U C35A	0.172
C29A C63A	0.355
C29A C63G	0.286
G28C U67C	0.168

Variant	self-cleavage
G28C U67G	0.295
G28U A51G	0.196
G28U A51C	0.157
G28U G58C	0.177
G28U G58A	0.185
G28U U62A	0.216
G28U U62G	0.189
C29A G50A	0.735
C29A G50U	0.747
C29A U53A	0.46
C29A U53G	0.454
C29A U53C	0.356
C29A G41C	0.195
C29A G48C	0.728
C29A G48A	0.777
C29A G48U	0.755
C29A U62A	0.409
C29A U62C	0.644
C29A U43A	0.32
C29A C54A	0.312
G28U U44G	0.175
G28C U61C	0.134
C29A C33A	0.373
C29A U61A	0.543

Variant	self-cleavage
G28U G47U	0.151
G28U G47C	0.205
G28U G47A	0.173
C29A A51G	0.706
C29A A51U	0.646
C29A U49C	0.809
C29A U49G	0.737
C29A U38A	0.365
C29A U38C	0.385
C29A U38G	0.218
C29A G65U	0.25
C29A G65A	0.371
C29A G65C	0.392
C29A C32G	0.155
C29A C32U	0.698
C29A U46G	0.759
G28U U38A	0.164
G28U U38G	0.161
G28U U38C	0.136
G28C U69A	0.18
G28U G30U	0.183
G28U G30C	0.166
G28U G30A	0.14
